From patent US20230382979A1 (ADAPTIVE BIOTECHNOLOGIES, published 2023)

B1: antibody 1589 (antibody, V domains shown)
VH: EVQLVESGGGLIQVGGSLRLSCAASGLTVTSNYMNWVRQGPGKGLEWVSLIYSGGTTYYADSVKGRFTISRDDSKNTLYLQMNSLRAEDTAVYYCARPIVGARSGMDVWGQGTAVTVSS
VL: DIQMTQSPSSLSASVGDRVTITCQASQDINKYLNWYQQKPGKAPKLLIYDASNLETGVPSRFSGSGSGTDFTFTISSLQPEDLATYYCHQFDNLPGTFGGGTKVEIK
B2: antibody 2729 (antibody, V domains shown)
VH: QVTLKESGPVLVKPTETLTLTCTVSGFSLSNARMGVSWIRQPPGKALEWLAHIFSNDEKSYSTYLKSRLTISKDSSKSQVVLTMTIMDPVDTATYYCARTAGRYSSRWGHYYYYMDVWGKGTTVTVSS
VL: NFMLTQPHSVSESPGKTVTISCTGSNGSIASNFMQWYQQRPGSAPTIVIYEDNQRPSGVPDRFSGSIDGSSNSASLTISGLKTEDEADYYCQSYDSSDSDLGVFGGGTKLTVL
B3: antibody 2619 (antibody, V domains shown)
VH: EVQLVESGGGLVQPGRSLRLSCAASGFTFDDYAMHWVRQAPGKGLEWVSGISWNSGSIGYADSVKGRFTLSRDNAKNSLFLQMDSLRAEDTALYYCAKDVSYRSGSYYRFWGGSGSWGQGTLVTVSS
VL: DIQMTQSPSSLSASVGDRVTITCRASLSIRSYLNWYQQKPGKPPKLLIYAASSLQSGVPSRFSGSGSGTDFTLTISSLQPEDFATYYCQQSYSTPLTFGGGTKVEIK

Legend:
[1] = molecular target: SARS-CoV-2 spike protein on live virus, B1.351 (beta variant) (SARS-CoV-2, B1.351); experiment: cell-based or functional assay
[2] = molecular target: T1, SARS-CoV-2 spike protein on live virus, strain USA-WA1/2020 (SARS-CoV-2, WA01/2020 strain, UniProt P0DTC2 14-1273); experiment: cell-based or functional assay
[3] = molecular target: SARS-CoV-2 spike protein, B1.1.7 (alpha variant), borne on lentiviral pseudovirus (SARS-CoV-2, B1.1.7); experiment: cell-based or functional assay
[4] = molecular target: SARS-CoV-2 spike protein, B1.351 (beta variant), borne on lentiviral pseudovirus (SARS-CoV-2, B1.351); experiment: cell-based or functional assay
[5] = molecular target: T2, Receptor-binding domain (RBD) of the SARS-CoV-2 spike protein, WA01/2020 strain (SARS-CoV-2, WA01/2020 strain, UniProt P0DTC2 319-541); experiment: SPR (Biacore 8K), antigen immobilized, antibody injected
[6] = molecular target: T2, Receptor-binding domain (RBD) of the …; experiment: dose-response ELISA on coated antigen
[7] = molecular target: T2, Receptor-binding domain (RBD) of the …; experiment: ELISA, antibody blocks RBD binding to human ACE2
[8] = molecular target: T1, SARS-CoV-2 spike protein on live virus, …; experiment: cell-based or functional assay; remark: listed apart in the source
[9] = molecular target: T2, Receptor-binding domain (RBD) of the …; experiment: SPR (Biacore), footnote to the Kd of < 4.7* pM
[10] = molecular target: T2, Receptor-binding domain (RBD) of the …; experiment: dose-response ELISA on WT RBD

Binder | Live Neut, B1.351 IC50 (pM) [1] | Live Neut, WA1/2020 IC50 (pM) [2] | Pseudo Neut, B1.1.7 IC50 (pM) [3] | Pseudo Neut, B1.351 IC50 (pM) [4] | Kd [5] | EC50 [6] | IC50 [7] | IC50, live virus micro-neutralization WA1/2020 [8] | koff [9] | EC50 (read off the curve) [10]
B1 | 167 pM | 43 pM | 133 pM | 137 pM | < 4.7 pM | 36 pM | 520 pM | 66.7 pM | < 1e-06 s⁻¹ | –
B2 | – | 111 pM | 93 pM | 793 pM | 15 pM | 37 pM | ~660 pM | 272 pM | – | ~0.01 µg/mL
B3 | – | 118 pM | ~7 pM | – | 105 pM | 37 pM | 479 pM | – | – | ~0.02 µg/mL
